Substitutions are numbered along the chain they refer to.
T1: human DLL3 on CHO-K1 hDLL3 cells (human, UniProt Q9NYJ7 27-492)
T1 construct: also called human DLL3 recombinant cell line
T1 sequence: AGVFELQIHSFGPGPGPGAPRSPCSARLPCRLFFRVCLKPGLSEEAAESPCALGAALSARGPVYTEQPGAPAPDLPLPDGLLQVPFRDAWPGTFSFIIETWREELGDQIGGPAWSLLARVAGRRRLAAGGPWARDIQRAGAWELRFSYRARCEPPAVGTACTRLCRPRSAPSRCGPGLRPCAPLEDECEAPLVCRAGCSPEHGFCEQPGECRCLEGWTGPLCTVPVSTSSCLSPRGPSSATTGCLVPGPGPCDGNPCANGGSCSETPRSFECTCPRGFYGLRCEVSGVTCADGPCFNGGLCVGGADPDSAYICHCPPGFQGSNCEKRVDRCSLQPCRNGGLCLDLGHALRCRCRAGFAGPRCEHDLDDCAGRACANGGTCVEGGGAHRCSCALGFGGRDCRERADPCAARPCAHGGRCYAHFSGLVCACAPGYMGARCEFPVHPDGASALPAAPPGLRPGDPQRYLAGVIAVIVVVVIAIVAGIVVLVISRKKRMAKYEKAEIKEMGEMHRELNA

T2: monkey DLL3 on CHO K1-cyno DLL3 cells (cynomolgus monkey)
T2 construct: also called monkey DLL3 recombinant cell line
T2 chain: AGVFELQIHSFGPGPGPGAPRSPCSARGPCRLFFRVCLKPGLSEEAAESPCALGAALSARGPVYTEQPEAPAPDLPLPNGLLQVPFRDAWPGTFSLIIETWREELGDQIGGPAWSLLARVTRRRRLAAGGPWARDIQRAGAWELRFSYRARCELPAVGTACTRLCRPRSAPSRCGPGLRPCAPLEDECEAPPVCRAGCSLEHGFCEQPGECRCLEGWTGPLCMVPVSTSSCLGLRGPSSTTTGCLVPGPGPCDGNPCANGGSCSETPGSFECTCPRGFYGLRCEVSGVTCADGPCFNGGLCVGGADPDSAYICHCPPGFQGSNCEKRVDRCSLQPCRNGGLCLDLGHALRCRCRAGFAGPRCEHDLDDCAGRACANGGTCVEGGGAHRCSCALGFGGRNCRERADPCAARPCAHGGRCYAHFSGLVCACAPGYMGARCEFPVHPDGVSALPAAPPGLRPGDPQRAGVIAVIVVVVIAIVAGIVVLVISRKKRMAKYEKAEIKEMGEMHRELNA

T3: human DLL1 protein (human, UniProt O00548 18-540, limits assumed)
T3 construct: bought protein; construct and tag not described; also called hDLL1
T3 sequence (looked up): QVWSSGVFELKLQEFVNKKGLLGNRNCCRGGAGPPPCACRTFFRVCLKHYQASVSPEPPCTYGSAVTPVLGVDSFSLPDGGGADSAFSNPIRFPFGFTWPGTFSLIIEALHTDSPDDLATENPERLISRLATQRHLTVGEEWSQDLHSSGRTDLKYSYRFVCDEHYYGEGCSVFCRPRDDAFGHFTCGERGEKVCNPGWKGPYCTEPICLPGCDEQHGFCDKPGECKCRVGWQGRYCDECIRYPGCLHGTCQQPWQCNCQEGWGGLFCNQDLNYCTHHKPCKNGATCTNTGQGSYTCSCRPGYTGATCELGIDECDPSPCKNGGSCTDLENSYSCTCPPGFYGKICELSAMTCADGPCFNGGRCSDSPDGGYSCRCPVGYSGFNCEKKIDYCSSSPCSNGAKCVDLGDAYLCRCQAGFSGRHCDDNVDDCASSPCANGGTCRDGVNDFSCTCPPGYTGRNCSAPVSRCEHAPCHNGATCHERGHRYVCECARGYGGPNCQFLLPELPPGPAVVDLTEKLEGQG

T4: mouse DLL3 on CHO K1-mDLL3 cells (mouse, UniProt O88516 33-490)
T4 construct: also called mouse DLL3 recombinant cell line
T4 sequence: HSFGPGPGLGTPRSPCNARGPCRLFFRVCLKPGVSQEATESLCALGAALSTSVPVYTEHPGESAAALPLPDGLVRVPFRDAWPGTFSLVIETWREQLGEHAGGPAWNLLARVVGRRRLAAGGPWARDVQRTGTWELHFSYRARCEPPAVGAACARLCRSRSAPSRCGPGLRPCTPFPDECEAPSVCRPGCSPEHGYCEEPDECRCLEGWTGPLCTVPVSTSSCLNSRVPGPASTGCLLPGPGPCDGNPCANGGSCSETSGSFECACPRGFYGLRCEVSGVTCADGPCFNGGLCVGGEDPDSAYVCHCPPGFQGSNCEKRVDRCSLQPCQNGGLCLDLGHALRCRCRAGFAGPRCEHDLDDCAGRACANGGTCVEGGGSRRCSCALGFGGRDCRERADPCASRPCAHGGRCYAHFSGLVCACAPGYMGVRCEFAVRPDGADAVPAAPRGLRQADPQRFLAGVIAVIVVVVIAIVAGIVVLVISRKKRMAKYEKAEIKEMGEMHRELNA

T5: human DLL3-his protein (human, UniProt Q9NYJ7 27-492)
T5 construct: also called human DLL3 protein; DLL3 antigen protein; not shown: His tag
T5 sequence: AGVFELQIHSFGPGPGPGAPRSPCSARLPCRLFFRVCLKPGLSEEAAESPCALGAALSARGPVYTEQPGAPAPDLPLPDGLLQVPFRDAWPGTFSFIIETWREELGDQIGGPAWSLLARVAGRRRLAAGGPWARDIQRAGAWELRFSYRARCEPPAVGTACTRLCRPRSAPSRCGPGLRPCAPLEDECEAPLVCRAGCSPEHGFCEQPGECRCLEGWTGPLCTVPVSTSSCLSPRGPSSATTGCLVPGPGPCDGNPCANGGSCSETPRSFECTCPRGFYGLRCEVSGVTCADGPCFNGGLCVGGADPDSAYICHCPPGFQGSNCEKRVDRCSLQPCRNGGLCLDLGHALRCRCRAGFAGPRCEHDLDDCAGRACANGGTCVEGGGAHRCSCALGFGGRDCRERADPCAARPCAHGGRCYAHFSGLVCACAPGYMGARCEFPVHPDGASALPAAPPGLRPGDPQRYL

T6: human DLL3 endogenously expressed on SHP77 and NCI-H82 cells (human, UniProt Q9NYJ7 27-618)
T6 construct: whole, on cells; cells endogenously expressing DLL3; also called SHP77 cells; SHP-77 cells
T6 sequence (looked up): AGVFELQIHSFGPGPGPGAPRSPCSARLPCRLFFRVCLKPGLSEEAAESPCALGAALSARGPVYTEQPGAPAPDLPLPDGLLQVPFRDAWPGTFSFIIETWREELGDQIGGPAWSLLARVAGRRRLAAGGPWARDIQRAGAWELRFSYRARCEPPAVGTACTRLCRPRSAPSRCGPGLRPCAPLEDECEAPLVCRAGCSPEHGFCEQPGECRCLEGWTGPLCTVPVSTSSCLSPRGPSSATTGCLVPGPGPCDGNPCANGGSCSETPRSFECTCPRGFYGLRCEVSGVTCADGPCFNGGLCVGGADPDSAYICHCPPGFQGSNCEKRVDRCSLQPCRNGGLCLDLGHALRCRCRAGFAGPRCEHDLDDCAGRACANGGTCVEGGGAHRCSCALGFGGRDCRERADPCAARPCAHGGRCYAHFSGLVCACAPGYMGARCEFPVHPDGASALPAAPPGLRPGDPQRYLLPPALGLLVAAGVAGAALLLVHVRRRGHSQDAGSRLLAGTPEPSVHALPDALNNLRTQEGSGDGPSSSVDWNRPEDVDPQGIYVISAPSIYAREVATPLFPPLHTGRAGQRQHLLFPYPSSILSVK

B1: Hab008L1H5-hFc (Fc fusion)
scFv (part 1 of 2): DIQMTQSPSSLSASVGDRVTITCKASQNVGTAVAWYQQKPGKSPKLLIFSASIRYTGVPSRFSGSGSGTDFTLTISSLQPEDFATYYCQQYSSSPYTFGGGTKVEIK
scFv (part 2 of 2): EVQLVQSGAEVKKPGASVKVSCKASGYTFTDYYMNWVRRAPGQRLEWMGIINPYNGGTSYNQKFRGRVTITVDKSASTAYMELSSLRSEDTAVYYCSRYDYDYDVEGAMDYWGQGTTVTVSS
notes: humanized mab008, VL-linker-VH-human IgG1 Fc; also called Hab008 humanized molecule; not shown: linker; human IgG1 Fc fragment
B2: Hab008L3H2a-hFc (Fc fusion)
scFv (part 1 of 2): DIVMTQSPDSLAVSLGERATINCKASQNVGTAVAWYQQKPGQSPKLLIFSASIRYTGVPDRFSGSGSGTDFTLTISSLQAEDVAVYYCQQYSSSPYTFGGGTKVEIK
scFv (part 2 of 2): B1 scFv (part 2 of 2) with R39Q, G56S, I70L
notes: as for B1
B3: Hab008L3H5-hFc (Fc fusion)
scFv (part 1 of 2): B2 scFv (part 1 of 2)
scFv (part 2 of 2): B1 scFv (part 2 of 2)
notes: as for B1
B4: mab001 scFv-hFc (Fc fusion)
scFv (part 1 of 2): not shown
scFv (part 2 of 2): QIQLVQSGPELKKPGETVKISCKASGYTFTTYGMSWVKQAPGKGLKWMGWINTYSGVPTYADDFKGRFAFSLETSASTAYLQINNLKNEDTATYFCARIGDYDYGEYWGQGTLVTVSA
notes: human-murine chimeric scFv-hFc, VL-linker-VH-human IgG1 Fc; not shown: linker; Fc fragment of human IgG1
B5: mab011 scFv-hFc (Fc fusion)
scFv (part 1 of 2): DIVLTQSPATLSVTPGDSVSLSCRASQSISNNLHWYQQKSHESPRLLIKYASQSISGIPSRFSGSGSGTDFTLSINSVETEDFGMYFCQQSNSWPWTFGGGTKLEIK
scFv (part 2 of 2): EVQLQQSGPELVKPGASVKISCKASGYTFTDYYMNWVKQSHGKSLEWIGDISPNYGGTNYNQKFKGKATLTVDKSSSTACMELRSLTSEDSAVYYCTRSFYYYGTGYDWYFDVWGTGTTVTVSS
notes: as for B4
B6: mab004 scFv-hFc (Fc fusion)
scFv (part 1 of 2): DIVLTQSPASLAVSLGQRATISCRASESVDYDGDSYMNWYQQKPGQPPKLLIYVASNLESGIPARFSGSGSGTDFILNIHPVEEEDAATYYCLQSNEAPYTFGSGTKLEIK
scFv (part 2 of 2): QVQLQQPGAELVKPGASVKLSCKASGYTFTSYWINWVKQRPGQGLEWIGNIYPGSSSPNYNEKFKSKATLTVDTSSSTAYMQLSSLTSDDSAVYYCARSLLYAMDYWGQGTSVTVSS
notes: as for B4
B7: mab016 scFv-hFc (Fc fusion)
scFv (part 1 of 2): DIVMTQSQKFMSTTIGDRVSITCKASQNVGTTVAWYQQKPGQSPNLLLYSTSNRFTGVPDRFTGSGSGTDFTLTITNMQSEDLADYFCQQYNNYPLTFGGGTKLEIK
scFv (part 2 of 2): EVNLEESGGGLVQPGGSMKLSCVASGFAFSNFWMQWVRQSPEKGLEWVAQIRLKSDNYAAHYAESVKGRFTISRDDSKSSVYLQLNNLRAEDTGTYYCTQGNWVGFAYWGQGTLVTVSA
notes: as for B4
B8: mab002 scFv-hFc (Fc fusion)
scFv (part 1 of 2): QIVLTQSPAIMSASPGEKVTMTCSARSSVSYMQWYQQKSGTSPKRWIYDTSKLASGVPARFSGSGSGTSYSLTISTMEAEDAATYYCQQWSSDPPTFGGGTKLEIK
scFv (part 2 of 2): QIQLVQSGPELKKPGETVKISCKASGYTFTNYGMNWLKQAPGKGLKWMGWINTYTGESTYADDFKGRFAFSLETSASTVYLQINNLKNEDMATYFCARMGDGYYDFTMDYWGQGTSVTVSS
notes: as for B4
B9: mab003 scFv-hFc (Fc fusion)
scFv (part 1 of 2): DVQITQSPSYLAASPGETITINCRASKSISKYLAWYQEKPGKTNKLLIYSGSTLHSGIPSRFSGSGSGTDFTLTISSLEPEDFAIYYCQQHNEYPLTFGGGTKLELK
scFv (part 2 of 2): QVQLQQSGTELMKPGASVKLSCKATGYTFTGNWIEWVKQRPGHGLEWIGEILPGTGSTQYNEKFKGKATFTADPSSNTAYMQLSSLTTEDSAIYYCARWGSTVVAYDYWGQGTTLTVSS
notes: as for B4

These binders were tested against T1, human DLL3 on CHO-K1 hDLL3 cells (assay: FACS, CHO-K1 hDLL3 cells).

binding result | Binder
binds | B1
binds | B2
binds | B3

Biological target: T2, monkey DLL3 on CHO K1-cyno DLL3 cells
Experiment: FACS, CHO K1-cyno DLL3 cells

binding result | Binder
binds | B4
binds | B5
binds | B1
binds | B2
binds | B3
binds | B6
binds | B7
binds | B8
binds | B9

These binders were tested against T3, human DLL1 protein (assay: ELISA, maximum over 0.1-100 nM).

Emax of OD450 nm binding value [OD450] | Binder
0.05 | B4
0.06 | B5
0.05 | B6
0.05 | B7
0.05 | B8
0.06 | B9

These binders were tested against T7, human DLL4 protein (human, UniProt Q9NR61 27-524, limits assumed) (assay: ELISA, maximum over 0.1-100 nM).
T7 construct: bought protein; construct and tag not described; also called hDLL4
T7 sequence (Q9NR61 27-524 limits assumed): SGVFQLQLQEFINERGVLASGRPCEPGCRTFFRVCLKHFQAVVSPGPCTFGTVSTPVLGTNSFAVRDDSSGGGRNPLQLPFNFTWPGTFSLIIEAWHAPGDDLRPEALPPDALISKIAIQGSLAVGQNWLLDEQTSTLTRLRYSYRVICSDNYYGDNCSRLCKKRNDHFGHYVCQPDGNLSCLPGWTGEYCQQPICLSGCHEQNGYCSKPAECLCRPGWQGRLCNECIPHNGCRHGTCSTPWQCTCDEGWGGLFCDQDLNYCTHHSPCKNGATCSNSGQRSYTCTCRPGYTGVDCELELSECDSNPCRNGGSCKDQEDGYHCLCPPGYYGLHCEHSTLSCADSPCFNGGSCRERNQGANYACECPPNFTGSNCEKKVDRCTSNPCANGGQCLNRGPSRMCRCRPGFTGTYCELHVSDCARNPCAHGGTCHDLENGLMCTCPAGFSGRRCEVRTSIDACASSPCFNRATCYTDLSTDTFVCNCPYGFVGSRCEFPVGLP

Emax of OD450 nm binding value [OD450] | Binder
0.05 | B4
0.06 | B5
0.04 | B6
0.04 | B7
0.05 | B8
0.05 | B9

The binders below were run against T4, mouse DLL3 on CHO K1-mDLL3 cells (assay: FACS, CHO K1-mDLL3 cells).

binding result | Binder
no binding | B1
no binding | B2
no binding | B3

These binders were tested against T5, human DLL3-his protein (assay: ELISA).

binding result | Binder
binds | B4
binds | B5
binds | B1
binds | B2
binds | B3
binds | B6
binds | B7
binds | B8
binds | B9

Each binder was assayed against T6, human DLL3 endogenously expressed on … (assay: FACS, SHP77 and NCI-H82 cells).

binding result | Binder
binds | B1
binds | B2
binds | B3
